Measured values from patent publication US5344846A, “Compositions and methods for inhibiting deoxyhypusine synthase and the growth of cells” (The United States of America as represented by the …, priority 1992, dated 1994).

Substrate: NCCCCNCCCN
Assay: Inhibition of deoxyhypusine synthase ([3H]deoxyhypusine formation from [3H]spermidine), IC50/Ki
Type: biochemical, rat
Conditions: pH 9.3; 37.0 °C
Protocol: A typical assay mixture included 0.2M glycine, 1 mM dithiothreitol, 0.5 mM NAD^+, 2.4 micromolar (μM) [1,8-^3 H] spermidine, 1 μM ec-eIF-5A(Lys), 25 micrograms (μg) bovine serum albumin, and 3-15 units of enzyme in a total volume of 20 microliters (μl). Incubations were carried out at pH 9.3 and 37° C. for 1 hour. […] Percent inhibition was plotted versus log inhibitor concentration in order to obtain graphic estimates of IC50 values, i.e., the concentrations inhibiting [^3 H]deoxyhypusine production by 50%. The IC50 values reported in the tables were calculated by fitting the data points to equation 1 where x=% inhibition and I is the inhibitor concentration. […] The nature of the inhibition was determined by plotting reciprocal velocities of [^3 H]deoxyhypusine production against reciprocals of [^3 H]spermidine concentrations at a constant fixed level of ec-eIF-5A(Lys) (1 μM) and at set inhibitor concentrations. […] Estimates of Ki values were made by fitting the data to equation 2; wherein v is the velocity of the reaction, V is the maximum velocity, S is the substrate concentration, Km is Michaeli's constant, Ki is the inhibition constant, and I is the inhibitor concentration.

B1: deoxyhypusine synthase from rat testis (Rattus norvegicus) (protein)
chain: MEGTPSGAAPSSALAAVLKHSSALPPESAQVQGYDFNRGVDYHALLEAYGTTGFQATNFGRAVQQVNAMIEKKLEPLAVDEDHHEDLTQSRRPLTGCTIFLGYTSNLISSGIRETIRYLVQHNMVDVLVTTAGGVEEDLIKCLAPTYLGEFSLRGKELRENGINRIGNLLVPNDNYCKFEDWLMPILDQMVQEQNTEGVKWTPSKMISRLGKEINNPESVYYWAHKNHIPVLSPALTDGSLGDMIFFHSYKNPGLVLDIVEDLRLINMQAIFAKRTGMIILGGGVVKHHIANANLMRNGADYAVYINTAQEFDGSDSGARPDEAVSWGKIRMDAQPVKVYADASLVFPLLVAETFAQKADAFRAEKNED
notes: as catalyzed by deoxyhypusine synthase from rat testis; from tissue; host or cells: rat testis
Km: 4.5 ± 0.7 µM
